Source: the supplement of paper PMC9112550, “Optimization of the antimicrobial peptide Bac7 by deep mutational scanning” (BMC Biology, 2022)
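Also: peptides expressed intracellularly from a pBAD plasmid library in pooled LB shake-flask culture, induced with 0.3% L-arabinose, DNA abundance read by NGS, three biological replicates, DESeq2 with apeglm shrinkage.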

What follows are sequences tested on Escherichia coli TOP10 (assay: shrunken log2 fold change of peptide-encoding DNA abundance (4.5 h post-induction vs induction); higher = less antimicrobial activity (less host growth inhibition)). Conditions: time post-induction: 4.5 h; library: site-saturation at positions 5, 18, 19, 20.
RRIRRRPPRLPRPRPRPSEGPRP was tested, and the “shrunken log2 fold change” value was 0.163. RRIRRRPPRLPRPRPRPSHIPRP was tested, and the “shrunken log2 fold change” value was -0.0708. RRIRRRPPRLPRPRPRPSHNPRP was tested, and the “shrunken log2 fold change” value was -0.379. RRIRRRPPRLPRPRPRPSIEPRP was tested, and the “shrunken log2 fold change” value was -0.232. In the case of RRIRRRPPRLPRPRPRPSITPRP, the “shrunken log2 fold change” value is reported as -0.225. RRIRRRPPRLPRPRPRPSLVPRP was tested, and the “shrunken log2 fold change” value was 0.243. For RRIRRRPPRLPRPRPRPSMGPRP, the “shrunken log2 fold change” value was -0.0183. With RRIRRRPPRLPRPRPRPSNHPRP the “shrunken log2 fold change” value was -0.396. For RRIRRRPPRLPRPRPRPSNTPRP, the “shrunken log2 fold change” value was -0.172. In the case of RRIRRRPPRLPRPRPRPSPMPRP, the “shrunken log2 fold change” value is reported as 1.54. With RRIRRRPPRLPRPRPRPSQPPRP the “shrunken log2 fold change” value was 0.104. For RRIRRRPPRLPRPRPRPSRCPRP, the “shrunken log2 fold change” value was -0.0309. RRIRRRPPRLPRPRPRPSSEPRP was tested, and the “shrunken log2 fold change” value was -0.322. With RRIRRRPPRLPRPRPRPSSGPRP the “shrunken log2 fold change” value was 0.0144. For RRIRRRPPRLPRPRPRPSSRPRP, the “shrunken log2 fold change” value was -0.00108. In the case of RRIRRRPPRLPRPRPRPSTNPRP, the “shrunken log2 fold change” value is reported as -0.0966. RRIRRRPPRLPRPRPRPSTTPRP was tested, and the “shrunken log2 fold change” value was 0.00373. RRIRRRPPRLPRPRPRPSWIPRP was tested, and the “shrunken log2 fold change” value was -0.284. With RRIRRRPPRLPRPRPRPSYEPRP the “shrunken log2 fold change” value was -0.33. In the case of RRIRRRPPRLPRPRPRPSYVPRP, the “shrunken log2 fold change” value is reported as -0.0434. With RRIRRRPPRLPRPRPRPTCAPRP the “shrunken log2 fold change” value was 0.502. For RRIRRRPPRLPRPRPRPTCFPRP, the “shrunken log2 fold change” value was 0.469. In the case of RRIRRRPPRLPRPRPRPTCHPRP, the “shrunken log2 fold change” value is reported as 0.0647. RRIRRRPPRLPRPRPRPTCLPRP was tested, and the “shrunken log2 fold change” value was 0.099. In the case of RRIRRRPPRLPRPRPRPTCTPRP, the “shrunken log2 fold change” value is reported as 0.165. In the case of RRIRRRPPRLPRPRPRPTFKPRP, the “shrunken log2 fold change” value is reported as 0.214. In the case of RRIRRRPPRLPRPRPRPTHTPRP, the “shrunken log2 fold change” value is reported as 0.66. For RRIRRRPPRLPRPRPRPTKQPRP, the “shrunken log2 fold change” value was -0.0752. RRIRRRPPRLPRPRPRPTLCPRP was tested, and the “shrunken log2 fold change” value was 0.581. RRIRRRPPRLPRPRPRPTLWPRP was tested, and the “shrunken log2 fold change” value was 0.563. With RRIRRRPPRLPRPRPRPTMRPRP the “shrunken log2 fold change” value was 0.667. RRIRRRPPRLPRPRPRPTMVPRP was tested, and the “shrunken log2 fold change” value was 0.283. For RRIRRRPPRLPRPRPRPTNHPRP, the “shrunken log2 fold change” value was -0.0627. RRIRRRPPRLPRPRPRPTPQPRP was tested, and the “shrunken log2 fold change” value was 1.52. With RRIRRRPPRLPRPRPRPTQNPRP the “shrunken log2 fold change” value was 1.03. In the case of RRIRRRPPRLPRPRPRPTRWPRP, the “shrunken log2 fold change” value is reported as 0.799. In the case of RRIRRRPPRLPRPRPRPTSFPRP, the “shrunken log2 fold change” value is reported as 0.264. For RRIRRRPPRLPRPRPRPTTLPRP, the “shrunken log2 fold change” value was 0.0363. For RRIRRRPPRLPRPRPRPTTTPRP, the “shrunken log2 fold change” value was 0.34. In the case of RRIRRRPPRLPRPRPRPTWAPRP, the “shrunken log2 fold change” value is reported as 0.7. RRIRRRPPRLPRPRPRPTWSPRP was tested, and the “shrunken log2 fold change” value was 0.519. In the case of RRIRRRPPRLPRPRPRPTYMPRP, the “shrunken log2 fold change” value is reported as -0.242. RRIRRRPPRLPRPRPRPVCNPRP was tested, and the “shrunken log2 fold change” value was 0.181. With RRIRRRPPRLPRPRPRPVDDPRP the “shrunken log2 fold change” value was -0.0484. In the case of RRIRRRPPRLPRPRPRPVEEPRP, the “shrunken log2 fold change” value is reported as 0.105. RRIRRRPPRLPRPRPRPVENPRP was tested, and the “shrunken log2 fold change” value was 0.0788. In the case of RRIRRRPPRLPRPRPRPVEWPRP, the “shrunken log2 fold change” value is reported as -0.182. For RRIRRRPPRLPRPRPRPVFFPRP, the “shrunken log2 fold change” value was 0.255. RRIRRRPPRLPRPRPRPVGAPRP was tested, and the “shrunken log2 fold change” value was 0.592. For RRIRRRPPRLPRPRPRPVGEPRP, the “shrunken log2 fold change” value was 0.333. In the case of RRIRRRPPRLPRPRPRPVGHPRP, the “shrunken log2 fold change” value is reported as 0.0496. RRIRRRPPRLPRPRPRPVHPPRP was tested, and the “shrunken log2 fold change” value was 0.348. With RRIRRRPPRLPRPRPRPVMMPRP the “shrunken log2 fold change” value was -0.0277. In the case of RRIRRRPPRLPRPRPRPVNHPRP, the “shrunken log2 fold change” value is reported as 0.177. With RRIRRRPPRLPRPRPRPVPLPRP the “shrunken log2 fold change” value was 0.385. RRIRRRPPRLPRPRPRPVQTPRP was tested, and the “shrunken log2 fold change” value was 0.178. RRIRRRPPRLPRPRPRPVRAPRP was tested, and the “shrunken log2 fold change” value was 0.935. In the case of RRIRRRPPRLPRPRPRPVRIPRP, the “shrunken log2 fold change” value is reported as -0.00526. For RRIRRRPPRLPRPRPRPVRPPRP, the “shrunken log2 fold change” value was 0.512. RRIRRRPPRLPRPRPRPVRQPRP was tested, and the “shrunken log2 fold change” value was 0.874. In the case of RRIRRRPPRLPRPRPRPVSHPRP, the “shrunken log2 fold change” value is reported as 0.218. RRIRRRPPRLPRPRPRPVSMPRP was tested, and the “shrunken log2 fold change” value was 0.22. In the case of RRIRRRPPRLPRPRPRPVYHPRP, the “shrunken log2 fold change” value is reported as -0.0449. With RRIRRRPPRLPRPRPRPWCGPRP the “shrunken log2 fold change” value was 0.282. RRIRRRPPRLPRPRPRPWDPPRP was tested, and the “shrunken log2 fold change” value was -0.119. For RRIRRRPPRLPRPRPRPWEIPRP, the “shrunken log2 fold change” value was -0.0233. In the case of RRIRRRPPRLPRPRPRPWEPPRP, the “shrunken log2 fold change” value is reported as 0.0979. For RRIRRRPPRLPRPRPRPWFYPRP, the “shrunken log2 fold change” value was -0.00712. In the case of RRIRRRPPRLPRPRPRPWGCPRP, the “shrunken log2 fold change” value is reported as 0.0658. For RRIRRRPPRLPRPRPRPWGPPRP, the “shrunken log2 fold change” value was 0.0858. In the case of RRIRRRPPRLPRPRPRPWGRPRP, the “shrunken log2 fold change” value is reported as 0.101. For RRIRRRPPRLPRPRPRPWKIPRP, the “shrunken log2 fold change” value was -0.11. In the case of RRIRRRPPRLPRPRPRPWKTPRP, the “shrunken log2 fold change” value is reported as 0.00424. RRIRRRPPRLPRPRPRPWLSPRP was tested, and the “shrunken log2 fold change” value was 0.0437. RRIRRRPPRLPRPRPRPWMCPRP was tested, and the “shrunken log2 fold change” value was 0.214. In the case of RRIRRRPPRLPRPRPRPWMDPRP, the “shrunken log2 fold change” value is reported as -0.196. RRIRRRPPRLPRPRPRPWPGPRP was tested, and the “shrunken log2 fold change” value was 0.287. RRIRRRPPRLPRPRPRPWPIPRP was tested, and the “shrunken log2 fold change” value was 0.0239. In the case of RRIRRRPPRLPRPRPRPWPSPRP, the “shrunken log2 fold change” value is reported as 0.0392. RRIRRRPPRLPRPRPRPWPVPRP was tested, and the “shrunken log2 fold change” value was 0.0907. With RRIRRRPPRLPRPRPRPWQCPRP the “shrunken log2 fold change” value was -0.0743. For RRIRRRPPRLPRPRPRPWQDPRP, the “shrunken log2 fold change” value was 0.0293. RRIRRRPPRLPRPRPRPWQQPRP was tested, and the “shrunken log2 fold change” value was -0.0108. For RRIRRRPPRLPRPRPRPWQRPRP, the “shrunken log2 fold change” value was 0.188. For RRIRRRPPRLPRPRPRPWQWPRP, the “shrunken log2 fold change” value was 0.549. RRIRRRPPRLPRPRPRPWRYPRP was tested, and the “shrunken log2 fold change” value was 0.322. For RRIRRRPPRLPRPRPRPWSAPRP, the “shrunken log2 fold change” value was 0.131. For RRIRRRPPRLPRPRPRPWSFPRP, the “shrunken log2 fold change” value was 0.0517. RRIRRRPPRLPRPRPRPWSHPRP was tested, and the “shrunken log2 fold change” value was -0.121. For RRIRRRPPRLPRPRPRPWSSPRP, the “shrunken log2 fold change” value was 0.0446. For RRIRRRPPRLPRPRPRPWTDPRP, the “shrunken log2 fold change” value was -0.131. In the case of RRIRRRPPRLPRPRPRPWTKPRP, the “shrunken log2 fold change” value is reported as 0.124. For RRIRRRPPRLPRPRPRPWTRPRP, the “shrunken log2 fold change” value was -0.0224. RRIRRRPPRLPRPRPRPWVFPRP was tested, and the “shrunken log2 fold change” value was -0.106. For RRIRRRPPRLPRPRPRPWWQPRP, the “shrunken log2 fold change” value was 0.0834. With RRIRRRPPRLPRPRPRPWWVPRP the “shrunken log2 fold change” value was 0.0496. For RRIRRRPPRLPRPRPRPWYCPRP, the “shrunken log2 fold change” value was -0.21. With RRIRRRPPRLPRPRPRPYDSPRP the “shrunken log2 fold change” value was -0.545. In the case of RRIRRRPPRLPRPRPRPYFGPRP, the “shrunken log2 fold change” value is reported as -0.163. With RRIRRRPPRLPRPRPRPYGVPRP the “shrunken log2 fold change” value was 0.037. For RRIRRRPPRLPRPRPRPYIGPRP, the “shrunken log2 fold change” value was -0.399. In the case of RRIRRRPPRLPRPRPRPYKGPRP, the “shrunken log2 fold change” value is reported as 0.0251. For RRIRRRPPRLPRPRPRPYMGPRP, the “shrunken log2 fold change” value was 0.00385. For RRIRRRPPRLPRPRPRPYMHPRP, the “shrunken log2 fold change” value was -0.451. For RRIRRRPPRLPRPRPRPYMYPRP, the “shrunken log2 fold change” value was -0.74. RRIRRRPPRLPRPRPRPYNGPRP was tested, and the “shrunken log2 fold change” value was -0.0173. For RRIRRRPPRLPRPRPRPYNVPRP, the “shrunken log2 fold change” value was -0.181. With RRIRRRPPRLPRPRPRPYPCPRP the “shrunken log2 fold change” value was 0.253. For RRIRRRPPRLPRPRPRPYPKPRP, the “shrunken log2 fold change” value was -0.0202.
